{
  "source": "patent US20230114801A1",
  "about": "(SYSTIMMUNE, published 2023)",
  "key": {"human EGFR": {"target": "T1, human EGFR (human, UniProt P00533 25-645, limits assumed)", "T1 construct": "Soluble antigen in Octet; construct not described", "experiment": "BLI (Octet), binder on AHC sensor, 100 nM human antigen, 1:1 fit"}, "human PD-L1 [1]": {"target": "T2, human PD-L1 (human, UniProt Q9NZQ7 19-238)", "T2 construct": "Soluble antigen in Octet; bought; also called human PD-L1 (Acro PD1-H5229)", "experiment": "BLI (Octet), binder on AHC sensor, 100 nM human antigen, 1:1 fit"}, "human 4-1BB [2]": {"target": "T3, human 4-1BB (human, UniProt Q07011 24-186, limits assumed)", "T3 construct": "Soluble antigen in Octet; construct not described", "experiment": "BLI (Octet), binder on AHC sensor, 100 nM human antigen, 1:1 fit"}, "human CD3 [3]": {"target": "T4, human CD3 (human, UniProt P07766 23-126; P04234 22-105)", "T4 construct": "also called His-tagged human CD3; human CD3 (Acro CDD-H52W1)", "experiment": "BLI (Octet), binder on AHC sensor, 100 nM human antigen, 1:1 fit"}, "CD19": {"target": "T5, CD19 (UniProt P15391 20-291, limits assumed)", "T5 sequence (looked up)": "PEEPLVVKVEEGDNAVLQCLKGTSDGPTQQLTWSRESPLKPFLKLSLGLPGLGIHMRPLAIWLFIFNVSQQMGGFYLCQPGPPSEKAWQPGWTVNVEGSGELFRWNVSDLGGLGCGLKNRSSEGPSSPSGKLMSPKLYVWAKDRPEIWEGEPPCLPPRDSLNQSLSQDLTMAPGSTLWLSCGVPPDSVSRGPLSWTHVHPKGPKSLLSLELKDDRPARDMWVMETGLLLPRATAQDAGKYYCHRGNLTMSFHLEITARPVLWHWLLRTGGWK", "experiment": "antigen binding kinetics; method not given"}, "human PD-L1 [4]": {"target": "T2, human PD-L1", "experiment": "antigen binding kinetics; method not given"}, "human 4-1BB [5]": {"target": "T3, human 4-1BB", "experiment": "antigen binding kinetics; method not given"}, "human CD3 [6]": {"target": "T4, human CD3", "experiment": "antigen binding kinetics; method not given"}},
  "data": [
    {"binder": "SI-75P9 (other, penta-miniGNC; D1 αEGFR, D2 αCD3, D3 αHER3 (Fab), D4 α4-1BB, D5 αPD-L1) chain 1: EIVLTQSPSTLSVSPGERATFSCRASQSIGTNIHWYQQKPGKPPRLLIKYASESISGIPDRFSGSGSGTEFTLTISSVQSEDFAVYYCQQNNNWPTTFGPGTKLTVLGGGGSGGGGSGGGGSGGGGSQVQLQQSGPGLVKPSETLSITCTVSGFSLTNYGVHWIRQAPGKGLEWLGVIWSGGNTDYNTPFTSRFTITKDNSKNQVYFKLRSVRADDTAIYYCARALTYYDYEFAYWGQGTLVTVSSGGGGSGGGGSQVQLQESGGGLVKPGGSLRLSCAASGFTFSSYWMSWVRQAPGKGLEWVANINRDGSASYYVDSVKGRFTISRDDAKNSLYLQMNSLRAEDTAVYYCARDRGVGYFDLWGRGTLVTVSSASTKGPSVFPLAPSSKSTSGGTAALGCLVKDYFPEPVTVSWNSGALTSGVHTFPAVLQSSGLYSLSSVVTVPSSSLGTQTYICNVNHKPSNTKVDKRVEPKSCDKTHTCPPCPAPEAAGGPSVFLFPPKPKDTLMISRTPEVTCVVVDVSHEDPEVKFNWYVDGVEVHNAKTKPREEQYNSTYRVVSVLTVLHQDWLNGKEYKCAVSNKALPAPIEKTISKAKGQPREPQVYTLPPSRDELTKNQVSLSCAVKGFYPSDIAVEWESNGQPENNYKTTPPVLDSDGSFFLVSKLTVDKSRWQQGNVFSCSVMHEALHNHYTQKSLSLSPGGGGGSGGGGSDVVMTQSPSSVSASVGDRVTITCQASQNIRTYLSWYQQKPGKAPKLLIYAAANLASGVPSRFSGSGSGTDFTLTISDLEPGDAATYYCQSTYLGTDYVGGAFGGGTKLTVLGGGGSGGGGSGGGGSGGGGSEVQLVESGGGLVQPGGSLRLSCTASGFTISSYHMQWVRQAPGKGLEYIGTISSGGNVYYASSARGRFTISRPSSKNTVDLQMNSLRAEDTAVYYCARDSGYSDPMWGQGTLVTVSS chain 2: DVVMTQSPSTLSASVGDRVTINCQASESISSWLAWYQQKPGKAPKLLIYEASKLASGVPSRFSGSGSGTEFTLTISSLQPDDFATYYCQGYFYFISRTYVNSFGGGTKVEIKGGGGSGGGGSGGGGSGGGGSEVQLVESGGGLVQPGGSLRLSCAASGFTISTNAMSWVRQAPGKGLEWIGVITGRDITYYASWAKGRFTISRDNSKNTLYLQMNSLRAEDTAVYYCARDGGSSAITSNNIWGQGTLVTVSSGGGGSGGGGSQSALTQPASVSGSPGQSITISCTGTSSDVGGYNFVSWYQQHPGKAPKLMIYDVSDRPSGVSDRFSGSKSGNTASLIISGLQADDEADYYCSSYGSSSTHVIFGGGTKVTVLRTPKANPTVTLFPPSSEELQANKATLVCLISDFYPGAVTVAWKADGSPVKAGVETTKPSKQSNNKYAASSYLSLTPEQWKSHRSYSCQVTHEGSTVEKTVAPTECSGGDKTHTCPPCPAPEAAGGPSVFLFPPKPKDTLMISRTPEVTCVVVDVSHEDPEVKFNWYVDGVEVHNAKTKPREEQYNSTYRVVSVLTVLHQDWLNGKEYKCAVSNKALPAPIEKTISKAKGQPREPQVYTLPPSRDELTKNQVSLWCLVKGFYPSDIAVEWESNGQPENNYKTTPPVLDSDGSFFLYSKLTVDKSRWQQGNVFSCSVMHEALHNRFTQKSLSLSPGGGGGSGGGGSDIQMTQSPSTLSASVGDRVTITCQASQSISSHLNWYQQKPGKAPKLLIYKASTLASGVPSRFSGSGSGTEFTLTISSLQPDDFATYYCQQGYSWGNVDNVFGGGTKVTVLGGGGSGGGGSGGGGSGGGGSEVQLLESGGGLVQPGGSLSLSCAASGFSFSSGYDMCWVRQAPGKGLEWIACIAAGSAGITYDANWAKGRFTISRDNSKNTLYLQMNSLRAEDTAVYYCARSAFSFDYAMDLWGQGTLVTVSS", "values": [
      {"measurement": "Kd", "setting": "human EGFR", "result": 11.1, "unit": "nM"},
      {"measurement": "Kd", "setting": "human PD-L1 [1]", "result": 2.7, "unit": "nM"},
      {"measurement": "Kd", "setting": "human 4-1BB [2]", "result": 21.2, "unit": "nM"},
      {"measurement": "Kd", "setting": "human CD3 [3]", "result": 20.1, "unit": "nM"}
    ]},
    {"binder": "SI-38P11 (other, penta-miniGNC; D1 αCD20 scFv, D2 αCD19, D3 αCD3 Fab without additional disulphide, D4 α4-1BB, D5 αPD-L1 scFv) chain 1: QIVLSQSPAILSASPGEKVTMTCRASSSVSYIHWFQQKPGSSPKPWIYATSNLASGVPVRFSGSGSGTSYSLTISRVEAEDAATYYCQQWTSNPPTFGGGTKLTVLGGGGSGGGGSGGGGSGGGGSQVQLQQPGAELVKPGASVKMSCKASGYTFTSYNMHWVKQTPGRGLEWIGAIYPGNGDTSYNQKFKGKATLTADKSSSTAYMQLSSLTSEDSAVYYCARSTYYGGDWYFNVWGAGTTVTVSSGGGGSGGGGSEVQLVESGGGLVQPGGSLRLSCAASGFTISTNAMSWVRQAPGKGLEWIGVITGRDITYYASWAKGRFTISRDNSKNTLYLQMNSLRAEDTAVYYCARDGGSSAITSNNIWGQGTLVTVSSASTKGPSVFPLAPSSKSTSGGTAALGCLVKDYFPEPVTVSWNSGALTSGVHTFPAVLQSSGLYSLSSVVTVPSSSLGTQTYICNVNHKPSNTKVDKRVEPKSCDKTHTCPPCPAPEAAGGPSVFLFPPKPKDTLMISRTPEVTCVVVDVSHEDPEVKFNWYVDGVEVHNAKTKPREEQYNSTYRVVSVLTVLHQDWLNGKEYKCAVSNKALPAPIEKTISKAKGQPREPQVYTLPPSRDELTKNQVSLSCAVKGFYPSDIAVEWESNGQPENNYKTTPPVLDSDGSFFLVSKLTVDKSRWQQGNVFSCSVMHEALHNHYTQKSLSLSPGGGGGSGGGGSDVVMTQSPSSVSASVGDRVTITCQASQNIRTYLSWYQQKPGKAPKLLIYAAANLASGVPSRFSGSGSGTDFTLTISDLEPGDAATYYCQSTYLGTDYVGGAFGGGTKLTVLGGGGSGGGGSGGGGSGGGGSEVQLVESGGGLVQPGGSLRLSCTASGFTISSYHMQWVRQAPGKGLEYIGTISSGGNVYYASSARGRFTISRPSSKNTVDLQMNSLRAEDTAVYYCARDSGYSDPMWGQGTLVTVSS chain 2: ENVLTQSPASLSASPGERVTITCSASSSVSYMHWYQQKPGQAPKLWIYDTSKLASGVPSRFSGSGSGNDHTLTISSMEPEDFATYYCFQGSVYPFTFGQGTKVTVLGGGGSGGGGSGGGGSGGGGSQVTLKESGPGLVQPGQTLSLTCAFSGFSLSTSGMGVGWIRQPPGKGLEWLAHIWWDDDKRYNPALKSRLTISKDTSKNQVYLQMNSLDAEDTAVYYCARMELWSYYFDYWGQGTLVTVSSGGGGSGGGGSDVVMTQSPSTLSASVGDRVTINCQASESISSWLAWYQQKPGKAPKLLIYEASKLASGVPSRFSGSGSGTEFTLTISSLQPDDFATYYCQGYFYFISRTYVNSFGGGTKVEIKRTVAAPSVFIFPPSDEQLKSGTASVVCLLNNFYPREAKVQWKVDNALQSGNSQESVTEQDSKDSTYSLSSTLTLSKADYEKHKVYACEVTHQGLSSPVTKSFNRGECGGDKTHTCPPCPAPEAAGGPSVFLFPPKPKDTLMISRTPEVTCVVVDVSHEDPEVKFNWYVDGVEVHNAKTKPREEQYNSTYRVVSVLTVLHQDWLNGKEYKCAVSNKALPAPIEKTISKAKGQPREPQVYTLPPSRDELTKNQVSLWCLVKGFYPSDIAVEWESNGQPENNYKTTPPVLDSDGSFFLYSKLTVDKSRWQQGNVFSCSVMHEALHNRFTQKSLSLSPGGGGGSGGGGSDIQMTQSPSTLSASVGDRVTITCQASQSISSHLNWYQQKPGKAPKLLIYKASTLASGVPSRFSGSGSGTEFTLTISSLQPDDFATYYCQQGYSWGNVDNVFGGGTKVTVLGGGGSGGGGSGGGGSGGGGSEVQLLESGGGLVQPGGSLSLSCAASGFSFSSGYDMCWVRQAPGKGLEWIACIAAGSAGITYDANWAKGRFTISRDNSKNTLYLQMNSLRAEDTAVYYCARSAFSFDYAMDLWGQGTLVTVSS", "values": [
      {"measurement": "Kd", "setting": "CD19", "result": 1.89, "unit": "nM"},
      {"measurement": "Kd", "setting": "human PD-L1 [4]", "result": 1.1, "unit": "nM"},
      {"measurement": "Kd", "setting": "human 4-1BB [5]", "result": 14.8, "unit": "nM"},
      {"measurement": "Kd", "setting": "human CD3 [6]", "result": 5.23, "unit": "nM"}
    ]}
  ]
}
